Reference: US20230124851A1 (INHIBRX LNC, published 2023)

T1: human B7H3 (CD276) on the cell surface (human, UniProt Q5ZPR3 29-534)
T1 construct: B7H3 on A375 and other B7H3-positive or transfected cells
T1 sequence: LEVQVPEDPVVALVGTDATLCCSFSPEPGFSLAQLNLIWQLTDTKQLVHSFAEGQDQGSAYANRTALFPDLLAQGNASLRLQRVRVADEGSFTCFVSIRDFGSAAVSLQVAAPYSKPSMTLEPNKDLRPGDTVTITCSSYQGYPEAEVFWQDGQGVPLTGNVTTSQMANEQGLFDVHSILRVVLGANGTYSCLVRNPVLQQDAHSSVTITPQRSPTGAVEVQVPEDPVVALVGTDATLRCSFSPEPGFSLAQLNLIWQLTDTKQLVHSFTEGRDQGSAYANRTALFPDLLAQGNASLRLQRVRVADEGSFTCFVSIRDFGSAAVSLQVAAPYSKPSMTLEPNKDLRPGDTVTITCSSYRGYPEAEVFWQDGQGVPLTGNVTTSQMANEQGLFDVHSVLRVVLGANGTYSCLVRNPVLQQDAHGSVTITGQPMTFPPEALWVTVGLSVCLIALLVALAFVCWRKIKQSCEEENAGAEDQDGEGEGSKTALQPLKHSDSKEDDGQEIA


Assays:
[1] = target: T2, CD3 on the surface of human T cells (human, UniProt P07766 23-207); assay: flow cytometry on primary human T cells; column head 'Affinity CD3'
T2 construct: whole, on cells; Part of the CD3/TCR complex on cells; also called CD3 epsilon
Description: (§1) Binding of exemplary B7H3-targeting constrained CD3 engaging constructs set forth in Table E3 to CD3 on the surface of primary T cells or B7H3-expressing cells (A375) was assessed by flow cytometry. The T cells were primary T-cells that were negatively enriched from PBMCs isolated from healthy human donor peripheral blood leukopaks. Bound construct was detected with fluorophore-conjugated secondary antibodies specific for the human Fc (anti-human IgG APC secondary antibody) and binding was measured by flow cytometry. Cells incubated with secondary antibody only served as negative controls. Binding was compared to Dual-affinity Re-targeting Antibody (DART)-monomeric Fc format targeting B7H3 and CD3 (DART-Fc B7H3xCD3; see e.g. WO2017030926A1).
(§2) Table E4 summarizes the affinity of exemplary molecules for B7H3 or CD3, as determined from flow cytometry, in these studies.

[2] = target: T1, human B7H3 (CD276) on the cell surface; assay: flow cytometry titration on A375 cells (B7H3+); column head 'Affinity B7H3' (apparent)
Description: as §1, §2

T2 sequence (P07766 23-207): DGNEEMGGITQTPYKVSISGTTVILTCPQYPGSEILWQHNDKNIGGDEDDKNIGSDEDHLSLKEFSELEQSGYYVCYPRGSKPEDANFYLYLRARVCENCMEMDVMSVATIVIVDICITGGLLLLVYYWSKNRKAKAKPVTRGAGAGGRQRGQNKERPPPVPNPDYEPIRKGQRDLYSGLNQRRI

Row | Kd [1] [nM] | Kd [2] [nM] | Binder
1 | > 200 | 0.539 | cx3072 (bispecific antibody, IgG1-Hole 294, 298 or 446; VH13 237; VL10 265)) chain 1: EVQLVESGGGEVQPGGSLRLSCAASGSTFSSYHMSWFRQAPGKQREPVATSHHGGTTNYAGSVKGRFTISRDNAKNTVYLQMNTLRAEDTAVYYCKADHGYQGRGYWGQGTLVTVKPPGGGGDKTHTCPPCPAPELLGGPSVFLFPPKPKDTLMISRTPEVTCVVVDVSHEDPEVKFNWYVDGVEVHNAKTKPREEQYNSTYRVVSVLTVLHQDWLNGKEYKCKVSNKALPAPIEKTISKAKGQPREPQVYTLPPCRDELTKNQVSLWCLVKGFYPSDIAVEWESNGQPENNYKTTPPVLDSDGSFFLYSKLTVDKSRWQQGNVFSCSVMHEALHNHYTQKSLSLSPTGGGGGSGGGGGSGGGGGSEVQLVESGGGLVQPGGSLRLSCAASGFTFNTYAMNWVRQAPGKCLEWVARIRSKYNNYATYYADSVKGRFTISRDDAKNTLYLQMSSLRAEDTAVYYCVRHGNFGNSYVSWFAYWGQGTLVTVKPGGGGEVQLVESGGGEVQPGGSLRLSCAPSERTFSTYTMGWFRQAPGKEREFVAVVNWGGGSKYYAESVKGRFTISRDNAKNTVYLQMSSLRAEDTAVYYCAAGGAYSGPYYDTRQYTYWGQGTLVTVKP chain 2: not shown
2 | > 200 | 0.523 | cx3090 (bispecific antibody, not shown: a dimerising Fc or GST, chain 2 ends in the 4-1BB sdAb RH3v5-1) chain 1: EVQLVESGGGEVQPGGSLRLSCAASGSTFSSYHMSWFRQAPGKQREPVATSHHGGTTNYAGSVKGRFTISRDNAKNTVYLQMNTLRAEDTAVYYCKADHGYQGRGYWGQGTLVTVKPGGSGGGGIEPDIGGSGGSEVQLVESGGGLVQPGGSLRLSCAASGFTFNTYAMNWVRQAPGKCLEWVARIRSKYNNYATYYADSVKGRFTISRDDAKNTLYLQMSSLRAEDTAVYYCVRHGNFGNSYVSWFAYWGQGTLVTVKPEVQLVESGGGEVQPGGSLRLSCAPSERTFSTYTMGWFRQAPGKEREFVAVVNWGGGSKYYAESVKGRFTISRDNAKNTVYLQMSSLRAEDTAVYYCAAGGAYSGPYYDTRQYTYWGQGTLVTVKP chain 2: GGSGGGGIEPDIGGSGGSQAVVTQEPSLTVSPGGTVTLTCGSSTGAVTTSNYANWVQQKPGQAFRGLIGGTNKRAPGVPARFSGSLLGGKAALTISGAQPEDEADYYCALWYSNHWVFGCGTKLTVLEVQLLESGGGEVQPGGSLRLSCAASGFSFSINAMGWYRQAPGKRREFVAAIESGRNTVYAESVKGRFTISRDNAKNTVYLQMSSLRAEDTAVYYCGLLKGNRVVSPSVAYWGQGTLVTVKP
3 | > 200 | 0.368 | cx4136 (bispecific antibody) chain 1: EVQLVESGGGEVQPGGSLRLSCAASGSTFSSYHMSWFRQAPGKQREPVATSHHGGTTNYAGSVKGRFTISRDNAKNTVYLQMNTLRAEDTAVYYCKADHGYQGRGYWGQGTLVTVKPDKTHTCPPCPAPGGPSVFLFPPKPKDTLMISRTPEVTCVVVDVSHEDPEVKFNWYVDGVEVHNAKTKPREEQYNSTYRVVSVLTVLHQDWLNGKEYKCKVSNKALPAPIEKTISKAKGQPREPQVYTLPPCRDELTKNQVSLWCLVKGFYPSDIAVEWESNGQPENNYKTTPPVLDSDGSFFLYSKLTVDKSRWQQGNVFSCSVMHEALHNHYTQKSLSLSPTGGGGGSGGGGGSGGGGGSEVQLVESGGGLVQPGGSLRLSCAASGFTFNTYAMNWVRQAPGKCLEWVARIRSKYNNYATYYADSVKGRFTISRDDAKNTLYLQMSSLRAEDTAVYYCVRHGNFGNSYVSWFAYWGQGTLVTVKPEVQLVESGGGEVQPGGSLRLSCAASGSTFSSYHMSWFRQAPGKQREPVATSHHGGTTNYAGSVKGRFTISRDNAKNTVYLQMNTLRAEDTAVYYCKADHGYQGRGYWGQGTLVTVKP chain 2: DKTHTCPPCPAPGGPSVFLFPPKPKDTLMISRTPEVTCVVVDVSHEDPEVKFNWYVDGVEVHNAKTKPREEQYNSTYRVVSVLTVLHQDWLNGKEYKCKVSNKALPAPIEKTISKAKGQPREPQVCTLPPSRDELTKNQVSLSCAVKGFYPSDIAVEWESNGQPENNYKTTPPVLDSDGSFFLVSKLTVDKSRWQQGNVFSCSVMHEALHNRYTQKSLSLSPTGGGGGSGGGGGSGGGGGSQAVVTQEPSLTVSPGGTVTLTCGSSTGAVTTSNYANWVQQKPGQAFRGLIGGTNKRAPGVPARFSGSLLGGKAALTISGAQPEDEADYYCALWYSNHWVFGCGTKLTVL
4 | > 200 | 0.375 | cx4137 (bispecific antibody, chain 2 ends in the 4-1BB sdAb RH3v5-1) chain 1: EVQLVESGGGEVQPGGSLRLSCAASGSTFSSYHMSWFRQAPGKQREPVATSHHGGTTNYAGSVKGRFTISRDNAKNTVYLQMNTLRAEDTAVYYCKADHGYQGRGYWGQGTLVTVKPDKTHTCPPCPAPGGPSVFLFPPKPKDTLMISRTPEVTCVVVDVSHEDPEVKFNWYVDGVEVHNAKTKPREEQYNSTYRVVSVLTVLHQDWLNGKEYKCKVSNKALPAPIEKTISKAKGQPREPQVYTLPPCRDELTKNQVSLWCLVKGFYPSDIAVEWESNGQPENNYKTTPPVLDSDGSFFLYSKLTVDKSRWQQGNVFSCSVMHEALHNHYTQKSLSLSPTGGGGGSGGGGGSGGGGGSEVQLVESGGGLVQPGGSLRLSCAASGFTFNTYAMNWVRQAPGKCLEWVARIRSKYNNYATYYADSVKGRFTISRDDAKNTLYLQMSSLRAEDTAVYYCVRHGNFGNSYVSWFAYWGQGTLVTVKPEVQLVESGGGEVQPGGSLRLSCAASGSTFSSYHMSWFRQAPGKQREPVATSHHGGTTNYAGSVKGRFTISRDNAKNTVYLQMNTLRAEDTAVYYCKADHGYQGRGYWGQGTLVTVKP chain 2: DKTHTCPPCPAPGGPSVFLFPPKPKDTLMISRTPEVTCVVVDVSHEDPEVKFNWYVDGVEVHNAKTKPREEQYNSTYRVVSVLTVLHQDWLNGKEYKCKVSNKALPAPIEKTISKAKGQPREPQVCTLPPSRDELTKNQVSLSCAVKGFYPSDIAVEWESNGQPENNYKTTPPVLDSDGSFFLVSKLTVDKSRWQQGNVFSCSVMHEALHNRYTQKSLSLSPTGGGGGSGGGGGSGGGGGSQAVVTQEPSLTVSPGGTVTLTCGSSTGAVTTSNYANWVQQKPGQAFRGLIGGTNKRAPGVPARFSGSLLGGKAALTISGAQPEDEADYYCALWYSNHWVFGCGTKLTVLEVQLLESGGGEVQPGGSLRLSCAASGFSFSINAMGWYRQAPGKRREFVAAIESGRNTVYAESVKGRFTISRDNAKNTVYLQMSSLRAEDTAVYYCGLLKGNRVVSPSVAYWGQGTLVTVKP
5 | > 200 | 0.379 | cx4641 (bispecific antibody, Printed composition is the same as cx4645) chain 1: EVQLVESGGGEVQPGGSLRLSCAASGSTFSSYHMSWFRQAPGKQREPVATSHHGGTTNYAGSVKGRFTISRDNAKNTVYLQMNTLRAEDTAVYYCKADHGYQGRGYWGQGTLVTVKPDKTHTCPPCPAPGGPSVFLFPPKPKDTLMISRTPEVTCVVVDVSHEDPEVKFNWYVDGVEVHNAKTKPREEQYNSTYRVVSVLTVLHQDWLNGKEYKCKVSNKALPAPIEKTISKAKGQPREPQVYTLPPCRDELTKNQVSLWCLVKGFYPSDIAVEWESNGQPENNYKTTPPVLDSDGSFFLYSKLTVDKSRWQQGNVFSCSVMHEALHNHYTQKSLSLSPTGGSGGGGIEPDIGGSGGSEVQLVESGGGLVQPGGSLRLSCAASGFTFNTYAMNWVRQAPGKCLEWVARIRSKYNNYATYYADSVKGRFTISRDDAKNTLYLQMSSLRAEDTAVYYCVRHGNFGNSYVSWFAYWGQGTLVTVKPQLQLQESGGGLVQAGDSLRLSCAASGFSFGSNVMMWVRQAPGKGPEWVSTIYSSGTGTFYADSVKGRFTISRNNAKNTLYLQMNSLKPDDTAVYYCATSGPVRGWGPRSQGTLVTVKP chain 2: DKTHTCPPCPAPGGPSVFLFPPKPKDTLMISRTPEVTCVVVDVSHEDPEVKFNWYVDGVEVHNAKTKPREEQYNSTYRVVSVLTVLHQDWLNGKEYKCKVSNKALPAPIEKTISKAKGQPREPQVCTLPPSRDELTKNQVSLSCAVKGFYPSDIAVEWESNGQPENNYKTTPPVLDSDGSFFLVSKLTVDKSRWQQGNVFSCSVMHEALHNRYTQKSLSLSPTGGSGGGGIEPDIGGSGGSQAVVTQEPSLTVSPGGTVTLTCGSSTGAVTTSNYANWVQQKPGQAFRGLIGGTNKRAPGVPARFSGSLLGGKAALTISGAQPEDEADYYCALWYSNHWVFGCGTKLTVL
